Results reported in patent publication US6548639 (BIOSTAPRO, dated 2003).

Target: T1, MAL-Sbi (aa 33-436, SEQ ID NO:3) (Staphylococcus aureus strain 8325-4, UniProt A6QJQ7 33-436)
T1 construct: Expressed in E. coli from pMAL-c2 (BamHI-SalI insert), purified on amylose resin and then on IgG-Sepharose; also called MAL-fusion of protein Sbi; mature full length protein; not shown: its limits and the v
Experiment: blot of the purified proteins overlaid with MAL-Sbi, detected with HRP-labelled chicken anti-Sbi

B1: bovine apolipoprotein H (other)
chain: GRTCPKPDELPFSTVVPLKRTYEPGEQIVFSCQPGYVSRGGIRRFTCPLTGLWPINTLKCMPRVCPFAGILENGTVRYTTFEYPNTISFSCHTGFYLKGASSAKCTEEGKWSPDLPVCAPITCPPPPIPKFASLSVYKPLAGNNSFYGSKAVFKCLPHHAMFGNDTVTCTEHGNWTQLPECREVRCPFPSRPDNGFVNHPANPVLYYKDTATFGCHETYSLDGPEEVECSKFGNWSAQPSCKASCKLSIKRATVIYEGERVAIQNKFKNGMLHGQKVSFFCKHKEKKCSYTEDAQCIDGTIEIPKCFKEHSSLAFWKTDASDVKPC
notes: mature; Serum protein; also called β2-glycoprotein I
B1: binds.
